Results taken from patent US20240059789A1 (Janssen / Centocor, published 2024).
Substitutions are numbered along the chain they refer to.

B1: PS3B1352 (bispecific antibody, human IgG1, lambda, L234A L235A)
heavy 1: QVQLQQSGPRLVRPSQTLSLTCAISGDSVFNNNAAWSWIRQSPSRGLEWLGRTYYRSKWLYDYAVSVKSRITVNPDTSRNQFTLQLNSVTPEDTALYYCARGYSSSFDYWGQGTLVTVSSASTKGPSVFPLAPSSKSTSGGTAALGCLVKDYFPEPVTVSWNSGALTSGVHTFPAVLQSSGLYSLSSVVTVPSSSLGTQTYICNVNHKPSNTKVDKKVEPKSCDKTHTCPPCPAPEAAGGPSVFLFPPKPKDTLMISRTPEVTCVVVSVSHEDPEVKFNWYVDGVEVHNAKTKPREEQYNSTYRVVSVLTVLHQDWLNGKEYKCKVSNKALPAPIEKTISKAKGQPREPQVYTLPPSREEMTKNQVSLTCLVKGFYPSDIAVEWESNGQPENNYKTTPPVLDSDGSFLLYSKLTVDKSRWQQGNVFSCSVMHEALHNHYTQKSLSLSPGK
light 1: QSALTQPASVSGSPGQSITISCTGTSSNIGTYKFVSWYQQHPDKAPKVLLYEVSKRPSGVSSRFSGSKSGNTASLTISGLQAEDQADYHCVSYAGSGTLLFGGGTKLTVLGQPKAAPSVTLFPPSSEELQANKATLVCLISDFYPGAVTVAWKADSSPVKAGVETTTPSKQSNNKYAASSYLSLTPEQWKSHRSYSCQVTHEGSTVEKTVAPTECS
heavy 2: EVQLVESGGGLVQPGGSLRLSCAASGFTFSSYAMSWVRQAPGKGLEWVSAISGGIGSTYYADSVKGRFTISRDNSKNTLWLQMNSLRAEDTAVYYCAKDGVGATPYYFDYWGQGTLVTVSSASTKGPSVFPLAPSSKSTSGGTAALGCLVKDYFPEPVTVSWNSGALTSGVHTFPAVLQSSGLYSLSSVVTVPSSSLGTQTYICNVNHKPSNTKVDKKVEPKSCDKTHTCPPCPAPEAAGGPSVFLFPPKPKDTLMISRTPEVTCVVVSVSHEDPEVKFNWYVDGVEVHNAKTKPREEQYNSTYRVVSVLTVLHQDWLNGKEYKCKVSNKALPAPIEKTISKAKGQPREPQVYTLPPSREEMTKNQVSLTCLVKGFYPSDIAVEWESNGQPENNYKTTPPVLDSDGSFFLYSRLTVDKSRWQQGNVFSCSVMHEALHNHYTQKSLSLSPGK
light 2: QSVLTQPPSVSAAPGQKVTISCSGSSSNIGNNYVSWYQQLPGTAPKLLIYDNNKRPSGIPDRFSGSKSGTSATLGITGLQTGDEADYYCGTWDSSLSAYVFGTGTKVTVLGQPKAAPSVTLFPPSSEELQANKATLVCLISDFYPGAVTVAWKADSSPVKAGVETTTPSKQSNNKYAASSYLSLTPEQWKSHRSYSCQVTHEGSTVEKTVAPTECS
B2: PS3B1353 (bispecific antibody, human IgG1, lambda, L234A L235A)
heavy 1: B1 heavy 1
light 1: B1 light 1
heavy 2: B1 heavy 2
light 2: B1 light 2 with N31I, Y99V, T103G, V107L
B3: PS3B1356 (bispecific antibody, human IgG1, lambda, L234A L235A)
heavy 1: B1 heavy 1 with R10G, R13K, V73I, R79K, T83S, L96V
light 1: B1 light 1 with D43G, L49M, L50I, S62N, Q85E, H89Y
heavy 2: B1 heavy 2
light 2: B1 light 2

What was measured:
[1] = target: T1, Human PSMA on prostate cancer cell lines (C4-2B, 22RV1) (human, UniProt Q04609 1-750); assay: cell-based or functional assay
T1 sequence (Q04609 whole entry): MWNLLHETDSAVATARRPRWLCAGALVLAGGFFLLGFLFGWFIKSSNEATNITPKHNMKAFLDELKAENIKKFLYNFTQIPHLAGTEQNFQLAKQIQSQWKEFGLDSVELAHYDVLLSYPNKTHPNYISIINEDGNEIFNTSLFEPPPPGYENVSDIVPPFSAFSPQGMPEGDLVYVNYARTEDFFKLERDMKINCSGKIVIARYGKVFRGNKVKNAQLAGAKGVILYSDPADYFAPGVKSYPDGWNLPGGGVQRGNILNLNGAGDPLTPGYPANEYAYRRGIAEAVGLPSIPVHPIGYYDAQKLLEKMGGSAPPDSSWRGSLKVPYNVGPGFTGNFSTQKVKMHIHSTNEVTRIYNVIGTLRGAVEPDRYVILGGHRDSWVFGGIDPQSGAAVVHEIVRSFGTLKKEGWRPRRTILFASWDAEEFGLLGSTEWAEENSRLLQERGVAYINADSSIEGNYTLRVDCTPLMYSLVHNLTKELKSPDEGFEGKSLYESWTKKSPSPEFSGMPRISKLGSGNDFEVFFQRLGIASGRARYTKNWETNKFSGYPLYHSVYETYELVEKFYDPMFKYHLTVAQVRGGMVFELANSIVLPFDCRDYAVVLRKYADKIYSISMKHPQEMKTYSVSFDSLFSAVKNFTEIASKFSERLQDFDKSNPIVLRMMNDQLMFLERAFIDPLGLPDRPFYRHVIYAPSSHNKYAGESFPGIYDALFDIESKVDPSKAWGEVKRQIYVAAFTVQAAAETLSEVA

[2] = target: T1, Human PSMA on prostate cancer cell …; assay: cell-based or functional assay; remark: listed apart in the source

| Binder | Cytotoxicity (C4-2B cells, 3:1 E:T ratio, 5 Day) at 0.3 nM [1] | Cytotoxicity (C4-2B cells, 3:1 E:T ratio, 5 Day) at 1.1 nM [1] | Cytotoxicity (C4-2B cells, 3:1 E:T ratio, 5 Day) at 3.3 nM [1] | Cytotoxicity (C4-2B cells, 3:1 E:T ratio, 5 Day) at 10 nM [1] | Cytotoxicity (C4-2B cells, 3:1 E:T ratio, 5 Day) at 30 nM [1] | % cytolysis at 120 hours (C4-2B, xCelligence, donor #1) at 80 pM [2] | % cytolysis at 120 hours (C4-2B, xCelligence, donor #1) at 0.4 nM [2] | % cytolysis at 120 hours (C4-2B, xCelligence, donor #1) at 2 nM [2] | % cytolysis at 120 hours (C4-2B, xCelligence, donor #1) at 10 nM [2] | % cytolysis at 120 hours (C4-2B, xCelligence, donor #1) at 50 nM [2] | % cytolysis at 120 hours (C4-2B, xCelligence, donor #2) at 80 pM [2] | % cytolysis at 120 hours (C4-2B, xCelligence, donor #2) at 0.4 nM [2] | % cytolysis at 120 hours (C4-2B, xCelligence, donor #2) at 2 nM [2] | % cytolysis at 120 hours (C4-2B, xCelligence, donor #2) at 10 nM [2] | % cytolysis at 120 hours (C4-2B, xCelligence, donor #2) at 50 nM [2] | % cytolysis at 120 hours (C4-2B, xCelligence, donor #3) at 80 pM [2] | % cytolysis at 120 hours (C4-2B, xCelligence, donor #3) at 0.4 nM [2] | % cytolysis at 120 hours (C4-2B, xCelligence, donor #3) at 2 nM [2] | % cytolysis at 120 hours (C4-2B, xCelligence, donor #3) at 10 nM [2] | % cytolysis at 120 hours (C4-2B, xCelligence, donor #3) at 50 nM [2] |
| --- | --- | --- | --- | --- | --- | --- | --- | --- | --- | --- | --- | --- | --- | --- | --- | --- | --- | --- | --- | --- |
| B1 | 65% | 88% | 89% | 85% | 79% | 77% | 100% | 100% | 100% | 100% | 0% | 100% | 100% | 100% | 100% | 9% | 100% | 100% | 100% | 100% |
| B2 | 98% | 98% | 97% | 95% | 92% | 100% | 100% | 100% | 100% | 100% | 100% | 100% | 100% | 100% | 100% | 100% | 100% | 100% | 100% | 100% |
| B3 |  | 55% | 80% | 83% | 88% | 0% | 100% | 100% | 100% | 100% | 0% | 24% | 100% | 100% | 100% | 0% | 100% | 100% | 100% | 100% |
